Results reported in the supplement of paper PMC11246515.
± gives the standard deviation of the averaged measurements.

Assay: total protein half-life in vivo (active degradation + dilution); higher = more stable protein
[1] = E. coli NCM3722 delta-clpP, growth: N-lim chemostat, doubling time 6 h
[2] = E. coli NCM3722 delta-hslV, growth: N-lim chemostat, doubling time 6 h
[3] = E. coli NCM3722 delta-lon, growth: N-lim chemostat, doubling time 6 h
[4] = E. coli NCM3722 delta-smpB, growth: N-lim chemostat, doubling time 6 h
[5] = wild type E. coli NCM3722, growth: C-lim chemostat, doubling time 3 h
[6] = wild type E. coli NCM3722, growth: C-lim chemostat, doubling time 6 h
[7] = wild type E. coli NCM3722, growth: C-lim chemostat, doubling time 12 h
[8] = wild type E. coli NCM3722, growth: N-lim chemostat, doubling time 6 h
[9] = wild type E. coli NCM3722, growth: N-lim chemostat, doubling time 12 h
[10] = wild type E. coli NCM3722, growth: P-lim chemostat, doubling time 6 h
[11] = wild type E. coli NCM3722, growth: P-lim chemostat, doubling time 12 h
[12] = E. coli NCM3722 delta-clpP delta-lon delta-hslV, growth: N-lim chemostat, doubling time 6 h

Substance: MSSVDILVPDLPESVADATVATWHKKPGDAVVRDEVLVEIETDKVVLEVPASADGILDAVLEDEGTTVTSRQILGRLREGNSAGKETSAKSEEKASTPAQRQQASLEEQNNDALSPAIRRLLAEHNLDASAIKGTGVGGRLTREDVEKHLAKAPAKESAPAAAAPAAQPALAARSEKRVPMTRLRKRVAERLLEAKNSTAMLTTFNEVNMKPIMDLRKQYGEAFEKRHGIRLGFMSFYVKAVVEALKRYPEVNASIDGDDVVYHNYFDVSMAVSTPRGLVTPVLRDVDTLGMADIEKKIKELAVKGRDGKLTVEDLTGGNFTITNGGVFGSLMSTPIINPPQSAILGMHAIKDRPMAVNGQVEILPMMYLALSYDHRLIDGRESVGFLVTIKELLEDPTRLLLDV [P0AFG6]
- total protein half-life in vivo [1]: 6.24 ± 0.17 h
- total protein half-life in vivo [2]: 5.462 ± 0.018 h
- total protein half-life in vivo [3]: 5.45 ± 0.14 h
- total protein half-life in vivo [4]: 4.93 ± 0.068 h
- total protein half-life in vivo [5]: 2.97 ± 0.23 h
- total protein half-life in vivo [6]: 5.7 ± 0.27 h
- total protein half-life in vivo [7]: 11.3 ± 0.7 h
- total protein half-life in vivo [8]: 5.17 ± 0.35 h
- total protein half-life in vivo [9]: 11 ± 2.5 h
- total protein half-life in vivo [10]: 5.72 ± 0.087 h
- total protein half-life in vivo [11]: 12 ± 1.1 h

Substance: MGNNLLSAKATLPVYDLNNLAPRIVHLGFGAFHRAHQGVYADILATEHFSDWGYYEVNLIGGEQQIADLQQQDNLYTVAEMSADVWTARVVGVVKKALHVQIDGLETVLAAMCEPQIAIVSLTITEKGYFHSPATGQLMLDHPMVAADVQNPHQPKTATGVIVEALARRKAAGLPAFTVMSCDNMPENGHVMRDVVTSYAQAVDVKLAQWIEDNVTFPSTMVDRIVPAVTEDTLAKIEQLTGVRDPAGVACEPFRQWVIEDNFVAGRPEWEKAGAELVSDVLPYEEMKLRMLNGSHSFLAYLGYLAGYQHINDCMEDEHYRYAAYGLMLQEQAPTLKVQGVDLQDYANRLIARYSNPALRHRTWQIAMDGSQKLPQRMLDSVRWHLAHDSKFDLLALGVAGWMRYVGGVDEQGNPIEISDPLLPVIQKAVQSSAEGKARVQSLLAIKAIFGDDLPDNSLFTARVTETYLSLLAHGAKATVAKYSVK
- total protein half-life in vivo [12]: 5.14 ± 0.34 h
- total protein half-life in vivo [1]: 3.3 ± 0.17 h
- total protein half-life in vivo [2]: 3.4445 ± 0.0012 h
- total protein half-life in vivo [4]: 2.77 ± 0.18 h
- total protein half-life in vivo [5]: 1.95 ± 0.0085 h
- total protein half-life in vivo [6]: 4.22 h
- total protein half-life in vivo [7]: 6.21 ± 3.1 h
- total protein half-life in vivo [8]: 3.63 ± 0.19 h
- total protein half-life in vivo [9]: 5.47 ± 0.58 h
- total protein half-life in vivo [10]: 3.61 ± 0.7 h
- total protein half-life in vivo [11]: 7.36 ± 0.28 h

Substance: MAKIKGQVKWFNESKGFGFITPADGSKDVFVHFSAIQGNGFKTLAEGQNVEFEIQDGQKGPAAVNVTAI [P0A9Y6]
- total protein half-life in vivo [12]: 4.07 ± 0.35 h
- total protein half-life in vivo [1]: 3.26 ± 0.19 h
- total protein half-life in vivo [2]: 2.88 ± 0.095 h
- total protein half-life in vivo [3]: 3.98 ± 0.54 h
- total protein half-life in vivo [4]: 2.65 ± 0.03 h
- total protein half-life in vivo [5]: 2.24 ± 0.71 h
- total protein half-life in vivo [6]: 3.23 ± 0.29 h
- total protein half-life in vivo [7]: 5.61 ± 1.2 h
- total protein half-life in vivo [8]: 2.83 ± 0.21 h
- total protein half-life in vivo [9]: 3.96 ± 0.13 h
- total protein half-life in vivo [10]: 2.94 ± 0.28 h
- total protein half-life in vivo [11]: 5 ± 1.2 h

Substance: MALKATIYKATVNVADLDRNQFLDASLTLARHPSETQERMMLRLLAWLKYADERLQFTRGLCADDEPEAWLRNDHLGIDLWIELGLPDERRIKKACTQAAEVALFTYNSRAAQIWWQQNQSKCVQFANLSVWYLDDEQLAKVSAFADRTMTLQATIQDGVIWLSDDKNNLEVNLTAWQQPS [P0AA97]
- total protein half-life in vivo [12]: 5.6431 ± 0.0016 h
- total protein half-life in vivo [1]: 3.9 ± 0.19 h
- total protein half-life in vivo [2]: 4.82 ± 0.38 h
- total protein half-life in vivo [3]: 5.25 ± 0.72 h
- total protein half-life in vivo [4]: 3.354 ± 0.009 h
- total protein half-life in vivo [7]: 8.84 ± 1.6 h
- total protein half-life in vivo [8]: 4.38 h
- total protein half-life in vivo [9]: 7.28 ± 0.26 h
- total protein half-life in vivo [10]: 4.93 ± 0.28 h

Substance: MHFLRRPISLRQRLILTIGAILLVFELISVFWLWHESTEQIQLFEQALRDNRNNDRHIMREIREAVASLIVPGVFMVSLTLFICYQAVRRITRPLAELQKELEARTADNLTPIAIHSATLEIEAVVSALNDLVSRLTSTLDNERLFTADVAHELRTPLAGVRLHLELLAKTHHIDVAPLVARLDQMMESVSQLLQLARAGQSFSSGNYQHVKLLEDVILPSYDELSTMLDQRQQTLLLPESAADITVQGDATLLRMLLRNLVENAHRYSPQGSNIMIKLQEDDGAVMAVEDEGPGIDESKCGELSKAFVRMDSRYGGIGLGLSIVSRITQLHHGQFFLQNRQETSGTRAWVRLKKDQYVANQI
- total protein half-life in vivo [12]: 5.995 ± 0.044 h
- total protein half-life in vivo [2]: 4.89 ± 1.3 h
- total protein half-life in vivo [3]: 6.2 ± 1.3 h
- total protein half-life in vivo [4]: 5.5 ± 0.35 h
- total protein half-life in vivo [5]: 3.17 ± 0.22 h
- total protein half-life in vivo [6]: 5.99 ± 0.74 h
- total protein half-life in vivo [7]: 11.5 ± 0.59 h
- total protein half-life in vivo [8]: 5.9 ± 0.18 h
- total protein half-life in vivo [9]: 12.7 ± 0.62 h
- total protein half-life in vivo [10]: 6.25 ± 0.75 h
- total protein half-life in vivo [11]: 11.1 ± 1.5 h

Substance: P0AAG3
- total protein half-life in vivo [12]: 6.26 ± 0.74 h
- total protein half-life in vivo [1]: 6.4 ± 1.1 h
- total protein half-life in vivo [2]: 6.83 ± 1.4 h
- total protein half-life in vivo [3]: 6.053 ± 0.0072 h
- total protein half-life in vivo [4]: 5.56 ± 0.4 h
- total protein half-life in vivo [5]: 3.02 ± 0.25 h
- total protein half-life in vivo [6]: 6.06 ± 0.07 h
- total protein half-life in vivo [7]: 11.3 ± 0.26 h
- total protein half-life in vivo [8]: 5.82 ± 0.16 h
- total protein half-life in vivo [9]: 11.6 ± 0.28 h
- total protein half-life in vivo [10]: 5.56 ± 0.15 h
- total protein half-life in vivo [11]: 11.4 ± 1.6 h

Substance: MKNRTLGSVFIVAGTTIGAGMLAMPLAAAGVGFSVTLILLIGLWALMCYTALLLLEVYQHVPADTGLGTLAKRYLGRYGQWLTGFSMMFLMYALTAAYISGAGELLASSISDWTGISMSATAGVLLFTFVAGGVVCVGTSLVDLFNRFLFSAKIIFLVVMLVLLLPHIHKVNLLTLPLQQGLALSAIPVIFTSFGFHGSVPSIVSYMDGNIRKLRWVFIIGSAIPLVAYIFWQVATLGSIDSTTFMGLLANHAGLNGLLQALREMVASPHVELAVHLFADLALATSFLGVALGLFDYLADLFQRSNTVGGRLQTGAITFLPPLAFALFYPRGFVMALGYAGVALAVLALIIPSLLTWQSRKHNPQAGYRVKGGRPALVVVFLCGIAVIGVQFLIAAGLLPEVG [P0AAD4]
- total protein half-life in vivo [4]: 6.48 h

Substance: MSPTIYDIARVAGVSKSTVSRVLNKQTNISPEAREKVLRAIEELQYQPNKLARALTSSGFDAIMVISTRSTKTTAGNPFFSEVLHAITAKAEEEGFDVILQTSHNPAEDLQKCESKIKQKMIKGIIMLSSPADESFFAQLDKYDIPVVVIGKVEGQYAHVYSVDTDNFGDSIALTDALIESGHQNIACLHAPLDVHVSVDRVNGYKQSLAAHNIAVRDEWIVDGGYTHETALKAARQLLSQSPLPEAVFATDSLKLMSIYRAAAEKNIAIPQQLAVVGYSNETLSFILTPAPGGIDVPTQELGQQSCELLFRLISGKPSPQNITVATHMTLK
- total protein half-life in vivo [12]: 5.84 ± 0.79 h
- total protein half-life in vivo [1]: 4.18 ± 1.6 h
- total protein half-life in vivo [2]: 5.76 ± 0.6 h
- total protein half-life in vivo [4]: 4.86 ± 0.18 h
- total protein half-life in vivo [5]: 2.48 ± 0.17 h
- total protein half-life in vivo [6]: 5.41 ± 0.97 h
- total protein half-life in vivo [7]: 10.2 ± 2.9 h
- total protein half-life in vivo [8]: 5.34 ± 0.57 h
- total protein half-life in vivo [9]: 9.3 ± 0.42 h
- total protein half-life in vivo [10]: 5.06 ± 0.33 h
- total protein half-life in vivo [11]: 10.6 ± 2.2 h

Substance: MSDNDELQQIAHLRREYTKGGLRRRDLPADPLTLFERWLSQACEAKLADPTAMVVATVDEHGQPYQRIVLLKHYDEKGMVFYTNLGSRKAHQIENNPRVSLLFPWHTLERQVMVIGKAERLSTLEVMKYFHSRPRDSQIGAWVSKQSSRISARGILESKFLELKQKFQQGEVPLPSFWGGFRVSLEQIEFWQGGEHRLHDRFLYQRENDAWKIDRLAP [P0AFI7]
- total protein half-life in vivo [12]: 4.89 ± 0.34 h
- total protein half-life in vivo [1]: 4.63 ± 0.17 h
- total protein half-life in vivo [2]: 4.2 ± 0.047 h
- total protein half-life in vivo [3]: 4.66 ± 0.076 h
- total protein half-life in vivo [4]: 4.39 ± 0.58 h
- total protein half-life in vivo [5]: 3.53 ± 0.6 h
- total protein half-life in vivo [6]: 5.55 ± 0.32 h
- total protein half-life in vivo [7]: 10.8 ± 1.7 h
- total protein half-life in vivo [8]: 4.14 ± 0.077 h
- total protein half-life in vivo [9]: 8.66 ± 0.44 h
- total protein half-life in vivo [10]: 5.65 ± 0.12 h
- total protein half-life in vivo [11]: 11.2 ± 0.29 h
